Positions count from the first letter of the chain named.
B1: Ab19 (antibody, V domains shown)
VH: QVQLVESGGGVVQPGRSLRLSCAASGFTFSSFAMTWVRQAPGKGLEWVSAISGSGAATYFADSVKGRFTISRDNSKNTLYLQMNSLRAEDTAVYYCARVSSGHWDFDEWGQGTLVTVSS
VL: DIQLTQSPSSLSASVGDRVTITCRASQSISSYLNWYQQKPGKAPKLLIYAASNLQSGVPSRFSGSGSGTDFTLTISSLQPEDFATYYCQQTYTVPLTFGGGTKVEIK
B2: Ab12 (antibody, V domains shown)
VH: B1 VH with S31D, F32Y, T35V, A56F, A57T, F60Y, E108Y
VL: B1 VL
B3: Ab20 (antibody, V domains shown)
VH: EVQLLESGGGLVQPGGSLRLSCAASGFTFSAYAMTWVRQAPGKGLEWVSAISGSGGVTYYADSVKGRFTISRDNSKNTLYLQMNSLRAEDTAVYYCARVSSGHWDYDYWGQGTLVTVSS
VL: B1 VL
B4: Ab11 (antibody, V domains shown)
VH: B3 VH with S30R, A31N, T35S, A50S, V57A, Y106F
VL: B1 VL
B5: Ab18 (antibody, IgG1, V domains shown)
VH: B1 VH with S31D, F32Y, T35V, R98T, E108Y
VL: B1 VL
B6: Ab16 (antibody, IgG1, V domains shown)
VH: B3 VH with A31N, T35S, G56F, V57T, Y106F
VL: B1 VL
B7: Ab17 (antibody, IgG1, V domains shown)
VH: B1 VH with Q1E, V5L, R16G, E108Y
VL: B1 VL
B8: Ab13 (antibody, IgG1, V domains shown)
VH: B3 VH with S30A, A31D, G53S, S54F, G55A, G56S, V57A, T58I, Y106F
VL: B1 VL with L4M, N53S, T91V, T93D, V94P
B9: Ab14 (antibody, IgG1, V domains shown)
VH: B3 VH with S54T, V57S, Y106F
VL: B1 VL with L4M, N53S, T91V, T93D, V94P
B10: Ab15 (antibody, IgG1, V domains shown)
VH: B3 VH with L5V, L11V, G16R, A31D, T35V, G56F, V57T, Y106F
VL: B1 VL
B11: Ab2 (antibody, V domains shown)
VH: B3 VH with S30A, A31D, G56A, V57A, Y60F, Y106F
VL: B1 VL

molecular target: Matrix-associated proTGFβ1 (hLTBP1-proTGFβ1 and hLTBP3-proTGFβ1 complexes); test: MSD-SET; cell average KD over ECM average KD

G/D (fold bias) [fold] | Binder
1.68 | B1
3.4 | B2
6.75 | B3
3.87 | B4

molecular target: Matrix-associated proTGFβ1 (hLTBP1-proTGFβ1 and hLTBP3-proTGFβ1 complexes); test: Octet (BLI); cell average KD over ECM average KD

G/D (fold bias) [fold] | Binder
34.5 | B1
22.9 | B2
22 | B5
15.3 | B6
4.42 | B3
24.3 | B7
4.35 | B4
21.7 | B8
17.4 | B9
24.2 | B10

molecular target: Cell-associated proTGFβ1 (hGARP-proTGFβ1 and hLRRC33-proTGFβ1 complexes); test: Octet (BLI); IgG1 from yeast; mean of hGARP and hLRRC33

Cell AVRG (average KD) [nM] | Binder
5.95 | B1
3.89 | B2
0.643 | B11
6.26 | B5
2.4 | B6
0.715 | B3
4.64 | B7
0.699 | B4
5.7 | B8
5.92 | B9
3.86 | B10

molecular target: Matrix-associated proTGFβ1 (hLTBP1-proTGFβ1 and hLTBP3-proTGFβ1 complexes); test: Octet (BLI); IgG1 from yeast; mean of hLTBP1 and hLTBP3

ECM AVRG (average KD) [nM] | Binder
0.172 | B1
0.17 | B2
0.157 | B11
0.284 | B5
0.157 | B6
0.162 | B3
0.191 | B7
0.161 | B4
0.263 | B8
0.341 | B9
0.159 | B10

molecular target: Cell-associated proTGFβ1 (hGARP-proTGFβ1 and hLRRC33-proTGFβ1 complexes); test: MSD-SET; IgG4 from mammalian cells; mean of hGARP and hLRRC33

Cell AVRG (average KD) [nM] | Binder
4.75 | B1
2.45 | B2
2.3 | B11
1.35 | B3
4.65 | B4

molecular target: Matrix-associated proTGFβ1 (hLTBP1-proTGFβ1 and hLTBP3-proTGFβ1 complexes); test: MSD-SET; IgG4 from mammalian cells; mean of hLTBP1 and hLTBP3

ECM AVRG (average KD) [nM] | Binder
2.83 | B1
0.72 | B2
0.266 | B11
0.2 | B3
1.2 | B4

— patent publication US20210340238A1, “TGFß1 INHIBITORS AND USE THEREOF” (Scholar Rock, Inc., priority 2018, published 2021)
